Where two headings read alike, the source gives them in different places.
How the values were obtained:
[1] = target: T1, recombinant human CD47 extracellular domain (ECD), His-tagged, monomer (human, UniProt Q08722 19-141); experiment: method not restated
T1 construct: C-terminal 6xHis tag; monomeric fraction from Superdex 200; also called human CD47 ECD; CD47-ECD monomer

[2] = target: T2, Cyno CD47 ECD protein, His-tagged, monomer (cyno); experiment: ProteOn SPR; cyno KD / human KD
T2 construct: extracellular domain; also called cynomolgus CD47
Description: (§1) Kinetic binding affinities to human CD47 and Cyno CD47 ECD proteins were determined by a Protein Interaction Array System (ProteOn). Briefly, mAbs were captured on the sensor chip via anti-IgG-Fc to reach surface density of 200-350 RU. […] The dissociation was monitored for 30 min. Data were fitted to 1:1 binding model.

[3] = target: T1, recombinant human CD47 extracellular …; experiment: ProteOn SPR; mAb captured, ECD monomer as analyte
Description: as §1

[4] = target: T2, Cyno CD47 ECD protein, His-tagged, …; experiment: ProteOn SPR; mAb captured, ECD monomer as analyte
Description: as §1

[5] = target: T3, human CD47 on Jurkat cells (human, UniProt Q08722 19-323); experiment: MSD on Jurkat cells; blocks SIRP alpha-Fc binding
T3 construct: Endogenous CD47 of the cell lines; also called CD47-expressing Jurkat cells; CD47 on HL60 cells
Excerpt: The ECL signal was plotted as a function of antibody concentrations, and EC₅₀ values were obtained from fitting the dose-response curves using non-linear regression model in GraphPad Prism.

[6] = target: T3, human CD47 on Jurkat cells; experiment: MSD on Jurkat cells; blocks SIRP alpha-Fc binding; remark: listed apart in the source
[7] = target: T1, recombinant human CD47 extracellular …; experiment: ProteOn SPR; mAb captured, ECD monomer as analyte; remark: listed apart in the source
[8] = target: T2, Cyno CD47 ECD protein, His-tagged, …; experiment: ProteOn SPR; mAb captured, ECD monomer as analyte; remark: listed apart in the source
[9] = target: T1, recombinant human CD47 extracellular …; experiment: ProteOn SPR
[10] = target: T2, Cyno CD47 ECD protein, His-tagged, …; experiment: ProteOn SPR; cyno KD / human KD; remark: listed apart in the source
[11] = target: T1, recombinant human CD47 extracellular …; experiment: ProteOn SPR; mAb captured, ECD monomer as analyte; remark: listed apart in the source
[12] = target: T2, Cyno CD47 ECD protein, His-tagged, …; experiment: ProteOn SPR; mAb captured, ECD monomer as analyte; remark: listed apart in the source
[13] = target: T2, Cyno CD47 ECD protein, His-tagged, …; experiment: ProteOn SPR; cyno KD / human KD; remark: listed apart in the source
[14] = target: T4, recombinant human CD47 extracellular domain (ECD), His-tagged, dimer (human, UniProt Q08722 19-141); experiment: MSD; CD47-ECD dimer binding to captured SIRP alpha-Fc, mAb 10 µg/ml
T4 construct: Dimeric fraction of the same His-tagged ECD; also called His-tagged CD47-ECD dimer protein

B1: C47B167 (antibody, V domains shown)
VH: EVQLVQSGAEVKKPGESLKISCKGSGYTFTSYWMQWVRQMPGKGLEWMGEINPSNGRTDYNEKFRGQVTISADKSISTAYLQWSSLKASDTAMYYCARQGGSGYGNSYGFFDVWGQGTTVTVSS
VL: EIVLTQSPATLSLSPGERATLSCRASSSVSYMHWYQQKPGQAPRLLIYDTSRLASGIPARFSGSGSGTDFTLTISSLEPEDFAVYYCQQWRSNPYTFGGGTKVEIK
notes: isotype not restated
[1]
  Kd: 5.2 nM

B2: B6H12.2 (human IgG2sigma) (antibody, V domains shown)
VH: EVKLVESGGDLVKPGGSLKLSCAASGFTFSGYGMSWVRQTPDKRLEWVATITSGGTYTYYPDSVKGRFTISRDNAKNTLYLQIDSLKSEDTAIYFCARSLAGNAMDYWGQGTSVTVSS
VL: DIVMTQSPATLSVTPGDRVSLSCRASQTISDYLHWYQQKSHESPRLLIKFASQSISGIPSRFSGSGSGSDFTLSINSVEPEDVGVYYCQNGHGFPRTFGGGTKLEIK
notes: also called IgG2 Fc-silent B6H12.2; positive control anti-CD47 mAb
[2]
  KD Ratio Cyno/Human: 1.1
[3]
  Kd: 0.539 nM
[4]
  Kd: 0.572 nM
[5]
  EC50: 0.21 µg/mL

B3: C47B157 (human IgG2sigma) (antibody, V domains shown)
VH: QVQLVQSGAEVKKPGASVKVSCKASGYTFTDYNMHWVRQAPGQGLEWMGDIYPYNGGTGYNQKFKGRVTMTRDTSTSTVYMELSSLRSEDTAVYYCARGGWHAMDSWGQGTLVTVSS
VL: DIVMTQSPLSLPVTPGEPASISCRSRQSIVHTNRYTYLAWYLQKPGQSPQLLIYKVSNRFSGVPDRFSGSGSGTDFTLKISRVEAEDVGVYYCFQGSHVPYTFGGGTKLEIK
notes: HFA variant of C47B116; human IgG2sigma/kappa; also called IgG2 Fc-silent C47B157
[6]
  EC50: 0.13 µg/mL
[7]
  Kd: 3.53 nM
[8]
  Kd: 3.71 nM
[9]
  fold change of affinity against parent C47B116: ≤ 5 fold
[10]
  KD Ratio Cyno/Human: 1.1

B4: C47B116 (antibody, human IgG2, V domains shown)
VH: EVQLQQSGPELVKPGASVKISCKASGYTFTDYNMHWVKQSHGKSLEWIGDIYPYNGGTGYNQKFKSKATLTVDNSSSTAYMELRSLTSEDSAVYYCARGGWHAMDSWGQGTSVTVSS
VL: DVVMTQTPLSLPVSLGDQASISCRSRQSIVHTNRYTYLAWYLQKPGQSPKLLIYKVSNRFSGVPDRFSGSGSGTDFTLKISRVEAEDLGVYYCFQGSHVPYTFGGGTKLEIK
notes: hybridoma-derived, chimeric human IgG2 Fc-silent/human kappa; also called parent hybridoma mAb C47B116
[6]
  EC50: 0.12 µg/mL
[7]
  Kd: 1.02 nM
[8]
  Kd: 0.95 nM
[10]
  KD Ratio Cyno/Human: 0.9
[2]
  KD Ratio Cyno/Human: 0.7
[3]
  Kd: 1.41 nM
[4]
  Kd: 0.967 nM
[5]
  EC50: 0.1 µg/mL

B5: C47B161 (human IgG2sigma) (antibody, V domains shown)
VH: QVQLVQSGAEVKKPGASVKVSCKASGYTFTDYNMHWVRQAPGQRLEWMGDIYPYNGGTGYNQKFKGRVTITRDTSASTAYMELSSLRSEDTAVYYCARGGWHAMDSWGQGTLVTVSS
VL: DIVMTQSPLSLPVTPGEPASISCRSRQSIVHTNRYTYLAWYLQKPGQSPQLLIYKVSNRFSGVPDRFSGSGSGTDFTLKISRVEAEDVGVYYCFQGSHVPYTFGGGTKLEIK
notes: HFA variant of C47B116; human IgG2sigma/kappa; also called IgG2 Fc-silent C47B161
[6]
  EC50: 0.06 µg/mL
[7]
  Kd: 2.87 nM
[8]
  Kd: 2.96 nM
[9]
  fold change of affinity against parent C47B116: ≤ 5 fold
[10]
  KD Ratio Cyno/Human: 1

B6: C47B91 (antibody, human IgG2, V domains shown)
VH: EVQLVQSGAEVKKPGESLKISCKGSGYSFTSYWIGWVRQMPGKGLEWMGIIYPGDSDTRYSPSFQGQVTISADKSISTAYLQWSSLKASDTAMYYCARVGRFASHQLDYWGQGTLVTVSS
VL: EIVLTQSPATLSLSPGERATLSCRASQSVNKALAWYQQKPGQAPRLLIYGASNRATGIPARFSGSGSGTDFTLTISSLEPEDFAVYYCQQGKGWPFTFGQGTKVEIK
notes: phage-derived; also called C47M91; parent C47B91
[11]
  Kd: 5.95 nM
[12]
  Kd: 17.8 nM
[13]
  KD Ratio Cyno/Human: 3
[14]
  % SIRP alpha Inhibition: 82.6%
[2]
  KD Ratio Cyno/Human: 1.6
[3]
  Kd: 15.6 nM
[4]
  Kd: 24.5 nM
[5]
  EC50: 0.06 µg/mL

— US20180250395A1 (Janssen / Centocor, published 2018)
